Assay: soluble on expression in E. coli; label from the status in PepcDB or PDB records
For “MAHHHHHHMLGEGLDIGFYAEDAYAAYVTDLATSLHLVPHCRNARGATLEVVFTGPFHDLSAYEEAVKQGKLVPYAELPWPVAEERGVQGVSGATLSVTLHGWIEKLNAARKVQLMEPLFPAAELGATIAEICVMGDAGNSAPCAFASTSPPCVAESAGTSNEKGTHPSLKPSRFRILGSLDFLLHLSSRDWLMGESSVPADSPSADGRDEANPNFAVGADDATRAAHACRDALEQRDDVALARNAVNTVIKMAQMAEEHPGEVGSVFVDAKERVEYIQFSAQ”, the “soluble on expression in E. coli” value was “not soluble”.
In the case of “MAHHHHHHMLILKNVEHTILLKIVKRSFSRNVNNNKFVIKPSSLRIRSDKNNFNDIINKYFPNRILKKRKQQDDYSKMNDKNEEKDKKYYLSSKIERRLKMEKVNDQSNISFYNVIPRDKNKNNYLLDSYNNINNDDSTNISDNTNISDNTNISDNTNISDNTNISDNINISDNINISDDINICDKLNICDNTNINLFGYDMTSHQVRVEEKENNLTRNNKKNVLEITKEEHDIQKYKNKLHKKIWILLKRKSNEKEFEHYYNMLEKYPLKDEVSYSILLHGKLLISKRKKDNAENYYDIIKECFKILNEMKVKKIHPTLVRFNEKLVLSYYELIKLNVHPSYKQWMKILRTVWFVSALVKARRQKFILRKMKKIKNKNSVSLDNFNGTFNIHNLESLYVENRDPLIANNVQQGI”, the “soluble on expression in E. coli” value is reported as “soluble”.
In the case of “MAHHHHHHMLNITRLRNLPEDLFEVDRRQKNGSNQSGKGWPQHKELIFDFTSLVRAYNQNKFEHLTDTFNNNRILISELVLHQLDEKNKVVRSTDAANAQEDDFHPVRLRDLINFLVTNMTESWLEFQRKGTQEDKQFTQLRCLNENVETPLRLISYALYKKRQGKDVLLVTSDSGLKCEAGLNSIDSQSIENIG”, the “soluble on expression in E. coli” value is reported as “not soluble”.
With “MAHHHHHHMLPNHSCKGFVDAQGRVFVDGREYPMASGIVATEDVIQANIKAMANTIAKDYKSLSHRDVRLSPGTAATAEAAEAPISYDNPLIIISVLKGSYIFTSDFIRYLGDCGLPHVVDFVRLASYNSDTTSTGQISMLAGLRFENLRGKHVLIVEDVCDSGRTLRFLRDYIMEKFQPKSVKTLVMVNKEQAARKLDFDPEYFCLAGPNKYIVGYGFEVNDRYRDLRHIFILRDGEATRYPAKL” the “soluble on expression in E. coli” value was “soluble”.
For “MAHHHHHHMLRGKSGLTASSSLEGGSEFSERIGNTLSSFLSESASLEVIGNELADNIANEIVGSLQNDSASFLQSEFDVKAQLKATAKKVLTEALKAALEPTEKIVASTIKPPRIKEDIYFLLSPVVRSLFNKVEDVLHKPVSDDIWNYESRGSSSEEEDEVDSDEDFLD”, the “soluble on expression in E. coli” value was “soluble”.
With “MAHHHHHHMLRHCIPRLGIAKTVIKDNYSLSTLTNGLRVLTCDDGNGVTGMGLFMLNGAKFESPDNAGAAAVFEALPLRDNQIYTSREISQALSGLGNAFKVTNNKEALSVILMLPRYHQRDGLELLNAMCLHPTRNEEEFRIAKEKTHERTLLYDRDATSVCFELVHEAGWNGKGLGHSLNPKKEELDKLTLEKFTAFHSACTRPERTVLAATGVADHKSFAEEVEKLLRFNNADVAVQAMPQLQPGYYPYTGGSRLVHRTEAPESVNKFQEKSLSHVALFFQGVPINHPDYYNISVIQTLLGGGTSFSSGGPGKGMQTKLFREVLNREGFLHGLECITAWYSDGGLFGLYGTAPHQAVVSLLNVMIYQAASICQRVSPTHLEMAKNQLRSQLILLGEGREQLLSDMGFNLVVHNHIITATETMEGTRNITLDDLKRVCADMIKKPLTFTVYGDTTKMPSHESLEETVRKTYEKLN” the “soluble on expression in E. coli” value was “not soluble”.
In the case of “MAHHHHHHMLRLCRVSLRVQSHQKKRAQHPNAGTRFGRVYNRGFIRYGFGGFGMSVYTPKKDRRFRVQPLPSLHANSLADDTPLVTTTRTLSPNFRAFALQDGGVFFTHPSHEQVMRVGQNILAEETKATGMTSMDTYVNSRIQSIIAENTVENVALSHWRRRHMWNLVRTHGKLQRHWGVSDATKGARSNIYGRPS”, the “soluble on expression in E. coli” value is reported as “not soluble”.
In the case of “MAHHHHHHMLRQSLLSLAKVYGAVPPLGAAQGHRLLHGKREREGSLFAVANDVKRDERLLRQQLNALLEEERMPMQARLQRSEAVSSHEAVPQTPLVDLPGVERRRDLPADPITRLFFQHKGDHALYYGTYDKPSVQDDDRVQIEKRVPRRREENLYTPIYDFCHRIREATEQRKRFVVVPSTIETRGCARVMHDHGLVAGFRDFHNDRAFAVELKYFQGDSTINVIEPCSYDGRTEFEWSPKMMRRLLNTHGIHNRLVVYICRTADNRIIDHIHAVKENIGGRGLMMVH”, the “soluble on expression in E. coli” value is reported as “not soluble”.
With “MAHHHHHHMLSNVPEEPEKLVREVSDLAEAFITNLKRGKLAAARSGGESLSTAAAVEMADVMSTIVRLFQNAEKDLHSTTIQLLKAGYPAAEVASMQVSRLLILVARTGDAMLRAQFATLFLMNVTRRVLSIVRESAANSKATDAELEDEAKTILNDLASDDEAAVVETPADTSSSSSNRCGMDDSTDPASPSLSAKGMKPALKRDTLVSQPLSRRGLSVRFAGTSTSSEEASGGHMRQLQQHSTSVASDFGGPLLQHTGSIVATEIPGRQLLKRAPSRCEQVLEGGGGEIEFPVRMEIFYQDALDAIDEFKRELEGMTEELCRRSTRQLHSSDTIITLGCSHTIRRYLLEAAQAGHHFKVFILEGAPLPAQATQEFAEALCSRGITAQLLPDSSAYVVMSMCTKVLVGAENVLANGGMLASIGTHVLCAAARHFAVPVLVATTTLKMSPYYPSDQLCTRLVRIARSGAQEMPWSTYGSPEDVWPSPFGVSVSDSGRRLTIHAPVTEYVPPELITLFLTNDSELLPSQIHRIVRANYSDAD” the “soluble on expression in E. coli” value was “not soluble”.
In the case of “MAHHHHHHMLTLNRRDKEICQELIRKNFTLSQIQSYNEPEYSGWVSRRRRVSNIFVWELNWLATSGNYLLCFSQKKDSCHPIKIMYLPEAIIRRCSMKEECCVGHPFVLEIVPCLHFVREEKGLFPVKPHEVHFSFENVEDLCGTIAFLAKISARHVRTASITFGPPTRVNHRIHLRAARGKNDFGLELLPLPMREWLLRQGITCAEMAGNETTALNCATTLYEVQMQRGMLEDLPPISEEGVTEKRYEDKAGVPPFPLPSENEGGALEPLLSAGDPESLFSDWERLDGGSQGEVFKAVRVVDGRKVAIKRITVRGDHKVPQSLVKEMSLLKALHHPNIVTLYDCYRKGKHLFLAMELMDGGKLTDLLIPSEGEPVEFTEAQLATLIREVLRALRCLHNARCVHRDVKSDNVLLSSNGEVKLGDFGFATLLTSPGGMRRTLVGTPYWMAPEVAGGKAYNDKADVWSAGILFLEMCDGQPPLMGMNPMRALLTVSTGPPPVMRTANRWSSLCREFASFLLVKDPARRPSVDDALRHPFIVKKAEPTCRFVATILQRRK”, the “soluble on expression in E. coli” value is reported as “soluble”.
In the case of “MAHHHHHHMMEERYNPFTGYQTPRHQQQSYRHNGGAMSRGGWGERVDAPADKMKPVDWTRVKLVPGSWKVLDTKAIHRAAHAKAEVVPAKQLTEEESNEWRETHTISIFGEGCPPPLSNFDQLSAFVPAYLQKKLTAQGFTSPTAVQAQAWPILLRGRDMVGVAKTGSGKTLAFMVPALAHIAMQEPLRTGDGPMVVVLAPTRELAQQIEQETKKVLPHDLRCGCVYGGAPKGPQLGILRNGVHILVATPGRLIDFLEIKRVNFFRVTYLVLDEADRMLDMGFEPQVRAICGQIRPDRQTLMFSATWPKEIQRLAAEFQKDWIRINVGSTELLANKDVTQHFILTQEHAKMEELKKLLANHRNQRVLIFCKTKRTADDLEWQLKRWGYDAMAIHGDKEQRQREFILERFRKDPRLCLVATDVAARGLDIKELETVINYDFPMQIDDYVHRIGRTGRAGAKGEAFTLITKREQQITPAVVTELIAIVDRAQQQVPDWLREWGEQRPRYQVMKRNRNMMGFGSSRHMPALYNGNRASFDAAGGGHPGNNNGTAGNKRGGEGGVFGLARHGSNGAAPFSSSRIEYKRFDDSDDDDGAAPPAKKRSK”, the “soluble on expression in E. coli” value is reported as “soluble”.
With “MAHHHHHHMMGISPEAVLLDFDWTASYVLATDRLSTAAMNRATARTVSMEGGADGADTKPRNSGGGMPLLQLAMDVARVAPPSEVASISPLVSPVSGVRLQLLATASSEMQGGGEGQPAERMLLPNDRLTMELDAESLDALIAALRTAVDGMDSLSGC” the “soluble on expression in E. coli” value was “not soluble”.
With “MAHHHHHHMMSKPHHATLESIKYTPGSLRLLDQRKLPLETVFDDVLTVEDIWSAIKEMRVRGAPAIAVSAALGIAVATQRKAANGELKSGREVQTFLLTSCDFVMTSRPTAVNLFNCLRDLKAQVDKLDPTKAAAEVAQAFVELAEAVYTNDVAFNEGIMRHGAAHILAAAKAEGRDKVSILTICNTGALATSRYGTALGVVRQLFYDGKLERVYACETRPWNQGARLTVYECVQEDIPCTLICDGAASSLMLNRKIDAVVVGADRICQNGDTANKIGTYNLAVSAKFHGVKLYVAAPTTTLDVKTASGNHVEIEEREPTEITTNLVTKQRVVADGPHLSIWNPVFDITPSELITGGIITEKGVQAPAASAPYYDIASIIAQA” the “soluble on expression in E. coli” value was “soluble”.
In the case of “MAHHHHHHMNPLYTDSISYSASDANITLPQQSMPQWANTNATASRVSAAPATAGEQAQQGNFASSLNSAGGFSVHVGSDAARSTLCSPKIATESLTAAAATTTTTKATTAVRRAPFLNPPPQQPLSGTRNRLSAPGSPAMYRSGPPIGFGGGPNYYYQYGGNTFIQDGKQQENEYYPPLPMSTPFHPVTAITKLVPLPHPKTGRGGIPAIFRFWGPIGSPAPRTPVPVPSLPNAGGVAATVFLAAIPISLVPQQMHPLSPRHPATGGSPAASSPLGGGESMGMSLVEVHHHSNGSSLGAGSPTAPAITPAPATAAAGASAVNLTVRVRRRTGGGNTAAIRVGGGASLAPLQLPSQGTSSLGASLTTLATTGPAKGPGTPFKHSPITPSNLPPAPLFAQSAPAQLLVDDSGSQRLSPTSMLPTNLVNEGSKTKGESVLRVDEDTYMQREAFRWNPYASTKWAQNRSNSTGASTSDSRGRLPVEGGSGSG”, the “soluble on expression in E. coli” value is reported as “soluble”.
In the case of “MAHHHHHHMNSPVVKMKAVKNDVEIDNMKQAHILDGLALLQFFHWCEQKRKTKELFNETEMSLRHKVDYFRSTKKNFIFPSFSTISASGPNAAVIHYECTDKTNATIKPAIYLLDSGGQYLHGTTDVTRTTHFGEPTAEEKRIYTLVLKGHLRLRKVIFASYTNSSALDFIARENLFNNFMDYNHGTGHGVGLTLNVHEGGCSIGPVGGAPLKKNMVLSNEPGYYMKDKFGVRIENMQYVISKEITDTTEYLSFDDLTMYPYEKKLLDFSLLTNQEIKELNEYHTTIRNTLLPLVKQSPQEYGESVEKYLIEITEPIAIHNN”, the “soluble on expression in E. coli” value is reported as “not soluble”.
In the case of “MAHHHHHHMNTDERYKLLRSVGEECIQESELRNLIEKKPLIRCYDGFEPSGRMHIAQGIFKAVNVNKCTAAGCEFVFWVADWFALMNDKVGGELEKIRIVGRYLIEVWKAAGMDMDKVLFLWSSEEITSHADTYWRMVLDIGRQNTIARIKKCCTIMGKTEGTLTAAQVLYPLMQCCDIFFLKADICQLGLDQRKVNMLAREYCDLIGRKLKPVILSHHMLAGLKQGQAKMSKSDPDSAIFMEDTEEDVARKIRQAYCPRVKQSASAITDDGAPVATDDRNPVLDYFQCVVYARPGAAATIDGTTYATYEDLEQAFVSDEVSEDALKSCLIDEVNALLEPVRQHFASNEEAHELLEAVKSYRKDGATLPLAETALPAAPAKPHACMWMPALLKVPLDVAEGMIKVTKDFIAAHPEGTVTLVLPDWSAVASDEITGVEKDISAALQVNCALLKAYGLPSSVKIVTENEVILGNCDDFWVSVIGIARKNLLSHVEELYGGEVRNAGQVIAALMRVATALMLSVSHVISTSLDGHINAFAREYTKERIDCVQTLEGRIPALHRPGAAPAVLGADDVLYLDDNDMDIRRKIKKAYSAPNEEANPVISVAQHLLAQHGALSIERGEANGGNVSYNTPEALVADCGSGALHPADLKAAVLQLLLDRSAQARALLNGELKKNMTVLRNAEKKMAKKR”, the “soluble on expression in E. coli” value is reported as “soluble”.
